Experimental data published in patent US20230416371A1.

Key:
[1] = target: human FcγRIIa R (allotype R131) extracellular domain (human) (UniProt P12318); assay: SPR Biacore 8K+; KD of G1d divided by KD of this antibody
[2] = target: human FcγRIIa R (allotype R131) extracellular domain (human) (UniProt P12318); assay: SPR Biacore 8K+; KD for FcγRIIb divided by KD for this FcγR
[3] = target: human FcγRIIa R (allotype R131) extracellular domain (human) (UniProt P12318); assay: SPR Biacore 8K+, 25 C, antibody captured, FcγR as analyte, 1:1 Langmuir model

Sequence of EGL-GASDALIE (H240-GASDALIE/L73-k0) (antibody) (heavy): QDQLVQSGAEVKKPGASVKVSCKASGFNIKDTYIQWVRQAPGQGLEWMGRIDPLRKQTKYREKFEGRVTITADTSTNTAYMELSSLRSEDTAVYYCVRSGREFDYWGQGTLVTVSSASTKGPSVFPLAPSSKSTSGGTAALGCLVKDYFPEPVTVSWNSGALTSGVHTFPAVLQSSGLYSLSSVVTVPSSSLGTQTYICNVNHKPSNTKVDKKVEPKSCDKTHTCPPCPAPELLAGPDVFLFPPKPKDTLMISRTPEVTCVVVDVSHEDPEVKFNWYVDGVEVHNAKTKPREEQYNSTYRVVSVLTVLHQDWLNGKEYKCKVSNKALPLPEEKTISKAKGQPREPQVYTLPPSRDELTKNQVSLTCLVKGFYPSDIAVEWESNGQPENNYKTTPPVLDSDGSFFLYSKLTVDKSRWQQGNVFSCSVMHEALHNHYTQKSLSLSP
Sequence of EGL-GASDALIE (H240-GASDALIE/L73-k0) (antibody) (light): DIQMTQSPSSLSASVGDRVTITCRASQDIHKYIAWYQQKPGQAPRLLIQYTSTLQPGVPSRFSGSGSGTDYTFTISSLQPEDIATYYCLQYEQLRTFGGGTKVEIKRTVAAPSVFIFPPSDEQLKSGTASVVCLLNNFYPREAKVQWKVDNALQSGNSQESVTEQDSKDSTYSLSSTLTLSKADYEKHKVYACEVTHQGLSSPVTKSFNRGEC
Sequence of human FcγRIIa R (allotype R131) extracellular domain (human) (P12318 34-217 H167R): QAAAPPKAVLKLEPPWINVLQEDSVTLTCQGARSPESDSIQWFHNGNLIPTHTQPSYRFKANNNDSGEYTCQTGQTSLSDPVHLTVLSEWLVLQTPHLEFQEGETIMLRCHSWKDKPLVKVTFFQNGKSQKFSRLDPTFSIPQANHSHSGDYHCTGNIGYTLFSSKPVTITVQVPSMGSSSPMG
Sequence of EGL-afucosyl (H240-G1d/L73-k_glycomab) (antibody) (heavy): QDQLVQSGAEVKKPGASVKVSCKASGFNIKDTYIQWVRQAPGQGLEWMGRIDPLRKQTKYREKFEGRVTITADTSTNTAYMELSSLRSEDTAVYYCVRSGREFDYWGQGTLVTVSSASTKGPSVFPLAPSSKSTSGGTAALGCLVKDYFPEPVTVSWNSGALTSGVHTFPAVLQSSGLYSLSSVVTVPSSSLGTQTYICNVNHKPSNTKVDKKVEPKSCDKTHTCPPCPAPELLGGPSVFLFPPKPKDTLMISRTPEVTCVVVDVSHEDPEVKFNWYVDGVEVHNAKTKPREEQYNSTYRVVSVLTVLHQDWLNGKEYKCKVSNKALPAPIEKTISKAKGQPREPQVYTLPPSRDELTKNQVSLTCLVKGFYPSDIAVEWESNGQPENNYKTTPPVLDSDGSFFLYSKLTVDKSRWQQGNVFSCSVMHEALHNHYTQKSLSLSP
Sequence of EGL-afucosyl (H240-G1d/L73-k_glycomab) (antibody) (VL): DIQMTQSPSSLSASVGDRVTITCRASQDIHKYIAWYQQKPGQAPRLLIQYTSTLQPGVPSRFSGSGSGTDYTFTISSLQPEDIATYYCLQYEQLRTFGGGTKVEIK

| Relative value to KD between G1d and hFcγRs [1] [times] | A/I ratio (KD for FcγRIIb divided by KD for each FcγR) [2] | Kd [3] [nM] | Substance |
| --- | --- | --- | --- |
| 10.3 | 16.5 | 161 | EGL-GASDALIE (H240-GASDALIE/L73-k0) (antibody) |
| 1.8 | 6 | 946 | EGL-afucosyl (H240-G1d/L73-k_glycomab) (antibody) |
